Experimental data reported in the Human Domainome abundance scans (Beltran et al. 2025).
± gives the uncertainty stated by the source.

B1: TGF-beta-activated kinase 1 and MAP3K7-binding protein 3, residues 12 to 50; numbered along this chain, Q8N5C8 (parent)
chain: VLHDLRQRFPEIPEGVVSQCMLQNNNNLEACCRALSQES
B2: Tumor protein 63, residues 545 to 610; numbered along this chain, Q9H3D4 (parent)
chain: TDCSIVSFLARLGCSSCLDYFTTQGLTTIYQIEHYSMDDLASLKIPEQFRHAIWKGILDHRQLHEF

Variants of: B1
Test: abundance fitness (aPCA) (normalised: wild type 0, dead -1); higher = more abundant; growth selection in yeast, the domain comes from the species named
Details: Homo sapiens

Variant	abundance fitness
L22T	0.026 ± 0.054
L22V	0.012 ± 0.058
L22W	-0.292 ± 0.045
L22Y	-0.213 ± 0.1
Q23A	0.107 ± 0.041
Q23D	0.271 ± 0.083
Q23E	0.215 ± 0.048
Q23G	-0.722 ± 0.058
Q23H	0.168 ± 0.14
Q23I	-0.649 ± 0.24
Q23K	-0.189 ± 0.1
Q23L	-0.108 ± 0.05
Q23M	-0.105 ± 0.059
Q23N	-0.046 ± 0.1
Q23P	-0.787 ± 0.1
Q23R	-0.06 ± 0.04
Q23S	-0.206 ± 0.052
Q23T	-0.275 ± 0.077
Q23V	-0.167 ± 0.043
N24A	-0.747 ± 0.061
N24C	-0.351 ± 0.054
N24E	-0.329 ± 0.062
N24G	-0.878 ± 0.059
N24H	0.178 ± 0.077
N24K	-0.843 ± 0.23

Variant	abundance fitness
N24L	-0.73 ± 0.07
N24M	-0.679 ± 0.096
N24P	-0.989 ± 0.11
N24Q	-0.623 ± 0.12
N24R	-1.08 ± 0.086
N24S	-0.848 ± 0.09
N24T	-0.871 ± 0.093
N24V	-0.894 ± 0.073
N24W	-0.638 ± 0.055
N25A	-0.425 ± 0.054
N25C	-0.5 ± 0.099
N25D	-0.015 ± 0.082
N25G	-0.108 ± 0.038
N25M	-0.548 ± 0.086
N25P	-0.615 ± 0.15
N25Q	-0.306 ± 0.075
N25R	-0.39 ± 0.045
N25S	-0.365 ± 0.051
N25T	-0.788 ± 0.091
N25V	-0.904 ± 0.095
N25W	-0.819 ± 0.098
N26A	-0.498 ± 0.049
N26C	-0.365 ± 0.092
N26D	-0.435 ± 0.12
N26E	-0.475 ± 0.062

Variant	abundance fitness
N26F	0.164 ± 0.25
N26G	-0.144 ± 0.04
N26H	-0.316 ± 0.12
N26K	-0.799 ± 0.2
N26L	-0.685 ± 0.097
N26M	-0.317 ± 0.088
N26P	-1.32 ± 0.45
N26R	-0.746 ± 0.057
N26S	-0.289 ± 0.053
N26V	-0.816 ± 0.088
N26W	-0.808 ± 0.15
N27A	-0.643 ± 0.079
N27C	-0.831 ± 0.26
N27G	-0.78 ± 0.073
N27H	-0.605 ± 0.26
N27K	-0.651 ± 0.11
N27L	-1.12 ± 0.14
N27P	-0.856 ± 0.18
N27Q	-0.398 ± 0.12
N27R	-0.607 ± 0.054
N27S	-0.478 ± 0.09
N27T	-1.01 ± 0.22
N27V	-0.764 ± 0.08
N27W	-0.835 ± 0.23
L28A	-0.484 ± 0.05

Variant	abundance fitness
L28C	-0.587 ± 0.37
L28D	-0.829 ± 0.31
L28E	-0.471 ± 0.1
L28G	-0.605 ± 0.048
L28H	-0.285 ± 0.097
L28M	-0.262 ± 0.076
L28P	-0.313 ± 0.085
L28Q	-0.527 ± 0.1
L28R	-0.437 ± 0.047
L28S	-0.629 ± 0.09
L28T	-0.684 ± 0.2
L28V	-0.221 ± 0.043
L28W	0.007 ± 0.042
E29L	-0.201 ± 0.2
E29V	-0.895 ± 0.48
A30C	-0.684 ± 0.25
A30E	-0.081 ± 0.045
A30G	-0.599 ± 0.047
A30H	-0.248 ± 0.17
A30I	-0.838 ± 0.18
A30K	-0.214 ± 0.072
A30M	-0.178 ± 0.054
A30N	-0.174 ± 0.25
A30P	-0.716 ± 0.14
A30Q	-0.178 ± 0.07

Variant	abundance fitness
A30R	-0.348 ± 0.043
A30S	-0.402 ± 0.075
A30T	-0.568 ± 0.083
A30V	-0.55 ± 0.065
A30W	-0.794 ± 0.1
C31A	-0.551 ± 0.072
C31D	0.122 ± 0.26
C31E	-0.467 ± 0.076
C31G	-0.555 ± 0.051
C31I	-0.718 ± 0.27
C31K	-0.513 ± 0.11
C31L	-0.914 ± 0.17
C31M	-0.732 ± 0.3
C31P	-0.64 ± 0.13
C31Q	-0.786 ± 0.24
C31R	-0.79 ± 0.072
C31S	-0.545 ± 0.068
C31T	-0.219 ± 0.061
C31V	-0.495 ± 0.065
C31W	-0.965 ± 0.21
C31Y	-0.895 ± 0.48
C32A	-0.21 ± 0.045
C32D	-0.484 ± 0.069
C32E	-0.176 ± 0.057
C32F	-0.579 ± 0.17

Variant	abundance fitness
C32G	-0.575 ± 0.053
C32H	-0.171 ± 0.15
C32L	-0.291 ± 0.071
C32M	-0.076 ± 0.048
C32N	0.023 ± 0.15
C32P	-0.664 ± 0.093
C32Q	-0.368 ± 0.095
C32R	-0.589 ± 0.06
C32S	-0.226 ± 0.046
C32V	0.176 ± 0.041
C32Y	-0.246 ± 0.064
R33A	0.04 ± 0.045
R33C	-0.451 ± 0.093
R33D	-0.239 ± 0.1
R33E	-0.056 ± 0.058
R33F	-0.271 ± 0.067
R33G	-0.454 ± 0.048
R33H	-0.137 ± 0.064
R33K	-0.023 ± 0.058
R33N	-0.315 ± 0.13
R33P	-0.731 ± 0.089
R33Q	-0.017 ± 0.051
R33S	-0.174 ± 0.045
R33T	-0.127 ± 0.056
R33V	-0.115 ± 0.051

Variant	abundance fitness
R33W	-0.259 ± 0.053
R33Y	-0.459 ± 0.12
A34C	-0.373 ± 0.13
A34D	-0.178 ± 0.11
A34E	-0.056 ± 0.041
A34G	-0.73 ± 0.057
A34H	-0.117 ± 0.09
A34I	-0.04 ± 0.13
A34K	-0.353 ± 0.054
A34L	-0.413 ± 0.05
A34M	-0.168 ± 0.051
A34N	-0.819 ± 0.41
A34Q	0.028 ± 0.063
A34R	-0.49 ± 0.046
A34S	-0.342 ± 0.055
A34T	-0.297 ± 0.08
A34V	-0.135 ± 0.046
A34W	-0.398 ± 0.047
A34Y	-0.328 ± 0.35
L35A	-0.793 ± 0.058
L35C	-0.6 ± 0.25
L35D	-0.784 ± 0.41
L35E	-0.504 ± 0.13
L35F	-0.697 ± 0.17
L35H	-0.469 ± 0.12

Variant	abundance fitness
L35K	-0.808 ± 0.13
L35M	-0.879 ± 0.15
L35P	-0.488 ± 0.081
L35Q	-0.629 ± 0.25
L35R	-0.811 ± 0.071
L35S	-0.745 ± 0.069
L35T	-0.603 ± 0.089
L35V	-0.924 ± 0.1
L35W	-0.819 ± 0.089
S36A	0.08 ± 0.042
S36C	-0.315 ± 0.099
S36D	-0.018 ± 0.087
S36E	0.166 ± 0.046
S36G	-0.194 ± 0.042
S36H	-0.314 ± 0.078
S36I	-0.108 ± 0.11
S36K	-0.014 ± 0.062
S36L	-0.186 ± 0.044
S36M	-0.095 ± 0.071
S36R	-0.031 ± 0.042
S36V	-0.365 ± 0.045
S36W	-0.571 ± 0.08
S36Y	-0.489 ± 0.1
Q37A	0.084 ± 0.038
Q37C	-0.129 ± 0.071

Variant	abundance fitness
Q37D	-0.042 ± 0.066
Q37E	0.102 ± 0.035
Q37F	-0.384 ± 0.072
Q37G	0.009 ± 0.035
Q37H	-0.162 ± 0.073
Q37I	-0.107 ± 0.057
Q37K	0.107 ± 0.053
Q37L	0.041 ± 0.039
Q37M	0.043 ± 0.045
Q37N	0.151 ± 0.1
Q37P	-0.537 ± 0.063
Q37R	-0.003 ± 0.034
Q37S	-0.014 ± 0.041
Q37T	-0.05 ± 0.047
Q37V	-0.122 ± 0.038
Q37W	-0.372 ± 0.048
Q37Y	-0.345 ± 0.091
E38C	0.058 ± 0.068
E38D	-0.045 ± 0.078
E38F	0.109 ± 0.1
E38G	-0.069 ± 0.036
E38H	0.11 ± 0.054
E38K	0.014 ± 0.046
E38L	0.14 ± 0.065
E38M	0.224 ± 0.061

Variant	abundance fitness
E38P	-0.029 ± 0.057
E38Q	0.145 ± 0.055
E38R	0.1 ± 0.047
E38S	-0.046 ± 0.044
E38T	-0.118 ± 0.058
E38V	-0.073 ± 0.042
E38W	0.264 ± 0.04
E38Y	0.093 ± 0.15
S39A	-0.255 ± 0.068
S39C	-0.083 ± 0.07
S39E	-0.104 ± 0.14
S39F	-0.213 ± 0.14
S39G	0.001 ± 0.057
S39K	0.052 ± 0.067
S39L	-0.045 ± 0.067
S39M	-0.077 ± 0.069
S39P	-0.041 ± 0.064
S39Q	0.039 ± 0.065
S39R	0.121 ± 0.05
S39T	0.249 ± 0.12
S39W	-0.137 ± 0.072
S39Y	-0.002 ± 0.06

Variants of: B2
Test: as above
Details: Homo sapiens

Variant	abundance fitness
I53K	-0.25 ± 0.13
S36N	0.009 ± 0.055
M37Q	-0.07 ± 0.031
H51S	0.013 ± 0.02
D39P	-0.864 ± 0.081
I45M	-0.143 ± 0.031
T22Q	-0.026 ± 0.039
G13P	-0.935 ± 0.13
V6N	-0.031 ± 0.028
I32K	-0.9 ± 0.14
I53L	-0.117 ± 0.025
R11H	-0.127 ± 0.051
D59V	-0.034 ± 0.022
D38E	0.004 ± 0.051
L43K	-0.283 ± 0.03
G25C	-0.143 ± 0.028
L26F	-0.106 ± 0.055
S36M	-0.096 ± 0.05
Y30M	-0.025 ± 0.043
H60C	-0.004 ± 0.037
T23V	-0.044 ± 0.024
T28D	-0.021 ± 0.036

Variant	abundance fitness
E33F	-0.06 ± 0.045
V6P	-0.077 ± 0.026
G13W	-0.829 ± 0.063
P46Y	-1.12 ± 0.47
H51A	-0.022 ± 0.025
L58A	-0.01 ± 0.022
H64Q	0.029 ± 0.048
S36I	-0.188 ± 0.04
T27G	-0.123 ± 0.018
I29L	-0.027 ± 0.025
S36R	-0.071 ± 0.024
F21L	-0.56 ± 0.028
E65V	-0.093 ± 0.039
T1A	-0.064 ± 0.044
R61F	-0.037 ± 0.033
K44Q	-0.014 ± 0.033
K55V	-0.071 ± 0.032
Y20L	-0.044 ± 0.028
C14P	-0.889 ± 0.098
P46E	-0.155 ± 0.043
L63T	-0.006 ± 0.03
S4M	-0.063 ± 0.021

Variant	abundance fitness
L18N	-0.047 ± 0.029
T22N	-0.066 ± 0.046
T23M	-0.01 ± 0.033
S42L	-0.01 ± 0.021
L18C	0.007 ± 0.026
F49L	-0.059 ± 0.025
G56L	-0.77 ± 0.051
S7F	-0.082 ± 0.042
L40N	-0.888 ± 0.13
F66M	0.028 ± 0.085
K55D	-0.072 ± 0.034
M37P	-0.014 ± 0.037
H34E	-0.007 ± 0.026
D19R	-0.019 ± 0.023
A10S	-0.104 ± 0.025
I29A	-0.175 ± 0.042
L12W	-0.072 ± 0.037
Q62T	-0.023 ± 0.028
I29Q	-0.355 ± 0.04
D2W	-0.275 ± 0.039
I45H	-0.925 ± 0.2
Y20E	-0.139 ± 0.03

Variant	abundance fitness
S15K	-0.037 ± 0.034
R11V	-0.171 ± 0.025
K55P	-0.792 ± 0.088
P46L	-0.976 ± 0.065
I5T	-0.479 ± 0.025
V6A	0.028 ± 0.025
I5S	-0.856 ± 0.036
I57G	-0.781 ± 0.034
T22A	-0.023 ± 0.034
P46H	-0.531 ± 0.05
A41F	-0.1 ± 0.034
T23A	-0.023 ± 0.028
S42Y	-0.069 ± 0.045
D19C	-0.079 ± 0.044
L12Q	-0.074 ± 0.036
Q24H	-0.015 ± 0.041
S16C	0.016 ± 0.033
D59G	-0.02 ± 0.022
E65Y	-0.184 ± 0.079
I53R	-0.945 ± 0.079
L18T	-0.008 ± 0.022
